Measured values reported in paper PMC10385607, “Optimization and Characterization of Novel ALCAM-Targeting Antibody Fragments for Transepithelial Delivery” (Pharmaceutics, 2023).

What was measured:
[1] = biological target: T1, Human ALCAM (28–501)-6xhistidine tag (human, UniProt Q13740); assay: ELISA; CD6 competition ELISA: plate coated with hALCAM (5 µg/mL in PBS); fixed murine CD6-Fc (0.25 µg/mL) with antibody 2000 nM to 0.002 nM in PBS, 2 h RT; bound CD6-Fc detected with HRP-coupled antihuman IgG; settings: both partners purified
T1 construct: human ALCAM, residues 28-501, all five extracellular immunoglobulin domains; also called hALCAM; source: CHO cells, in-house, purified (Ni-NTA agarose)

[2] = biological target: T1, Human ALCAM (28–501)-6xhistidine tag; assay: SPR; BiaCore3000; CM5 chip coated with hALCAM at 800 RU; flow 10 µL/min; single-cycle, sequential injection of scFv at 30, 60, 120 and 240 nM; settings: both partners purified
Murine ALCAM = Murine ALCAM (Mus musculus, UniProt Q61490); assay: cell-based or functional assay
Sequence of Murine ALCAM (Q61490 28-527): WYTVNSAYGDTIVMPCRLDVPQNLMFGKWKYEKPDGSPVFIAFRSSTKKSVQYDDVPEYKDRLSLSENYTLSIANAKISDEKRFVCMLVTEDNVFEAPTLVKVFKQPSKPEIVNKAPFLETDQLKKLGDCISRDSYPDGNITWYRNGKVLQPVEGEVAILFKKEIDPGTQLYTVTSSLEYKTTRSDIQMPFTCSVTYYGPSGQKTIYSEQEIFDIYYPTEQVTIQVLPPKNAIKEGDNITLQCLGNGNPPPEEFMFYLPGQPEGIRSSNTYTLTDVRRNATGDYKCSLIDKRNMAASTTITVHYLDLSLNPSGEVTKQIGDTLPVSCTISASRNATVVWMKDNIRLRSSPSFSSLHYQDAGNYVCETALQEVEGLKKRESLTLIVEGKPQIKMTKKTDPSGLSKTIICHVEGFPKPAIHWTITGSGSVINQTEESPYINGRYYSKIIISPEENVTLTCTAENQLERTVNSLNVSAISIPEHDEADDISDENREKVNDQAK

Monkey ALCAM = biological target: T2, Monkey ALCAM (Macaca fascicularis (cynomolgus monkey), UniProt G7NZQ8); assay: ELISA; plate coated with human, mouse, rat or monkey ALCAM (5 µg/mL in PBS); scFv V2D7 1:3 dilutions from 1000 nM to 0.051 nM in PBS, 2 h RT; detected with HRP-coupled protein A; settings: both partners purified
T2 construct: cynomolgus monkey ALCAM, recombinant; also called cynomolgus monkey ALCAM; source: bought: R&D systems (10027-AL-100)

Rat ALCAM = biological target: T3, Rat ALCAM (Rattus norvegicus, UniProt O35112); assay: as above; settings: both partners purified
T3 construct: rat ALCAM, recombinant; source: bought: Sino Biological (80221-R08H-50)
T3 sequence (O35112 28-527): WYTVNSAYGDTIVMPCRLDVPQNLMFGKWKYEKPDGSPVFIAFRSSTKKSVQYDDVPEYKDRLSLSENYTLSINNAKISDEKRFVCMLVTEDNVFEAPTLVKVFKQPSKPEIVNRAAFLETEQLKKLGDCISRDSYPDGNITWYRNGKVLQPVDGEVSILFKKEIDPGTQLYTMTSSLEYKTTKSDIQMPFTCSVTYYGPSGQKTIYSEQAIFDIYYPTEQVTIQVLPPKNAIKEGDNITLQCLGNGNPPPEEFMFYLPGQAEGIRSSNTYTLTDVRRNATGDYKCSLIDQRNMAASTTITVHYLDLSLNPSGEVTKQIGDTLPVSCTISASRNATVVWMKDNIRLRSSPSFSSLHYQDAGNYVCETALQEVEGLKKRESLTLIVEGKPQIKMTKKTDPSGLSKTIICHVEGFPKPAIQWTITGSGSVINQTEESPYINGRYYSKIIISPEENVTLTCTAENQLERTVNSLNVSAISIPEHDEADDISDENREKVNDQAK

[3] = biological target: T1, Human ALCAM (28–501)-6xhistidine tag; assay: ELISA; CD6 competition ELISA: plate coated with hALCAM (5 µg/mL in PBS); fixed murine CD6-Fc (0.25 µg/mL) with antibody 2000 nM to 0.002 nM in PBS, 2 h RT; bound CD6-Fc detected with HRP-coupled antihuman IgG; settings: both partners purified; remark: listed apart in the source
[4] = biological target: T4, Human ALCAM (28–501)-6xhistidine tag (human, UniProt Q13740 28-501); assay: as above; settings: both partners purified
T4 construct: human ALCAM, residues 28-501, all five extracellular immunoglobulin domains; also called hALCAM; source: CHO cells, in-house, purified (Ni-NTA agarose)
T4 sequence (looked up): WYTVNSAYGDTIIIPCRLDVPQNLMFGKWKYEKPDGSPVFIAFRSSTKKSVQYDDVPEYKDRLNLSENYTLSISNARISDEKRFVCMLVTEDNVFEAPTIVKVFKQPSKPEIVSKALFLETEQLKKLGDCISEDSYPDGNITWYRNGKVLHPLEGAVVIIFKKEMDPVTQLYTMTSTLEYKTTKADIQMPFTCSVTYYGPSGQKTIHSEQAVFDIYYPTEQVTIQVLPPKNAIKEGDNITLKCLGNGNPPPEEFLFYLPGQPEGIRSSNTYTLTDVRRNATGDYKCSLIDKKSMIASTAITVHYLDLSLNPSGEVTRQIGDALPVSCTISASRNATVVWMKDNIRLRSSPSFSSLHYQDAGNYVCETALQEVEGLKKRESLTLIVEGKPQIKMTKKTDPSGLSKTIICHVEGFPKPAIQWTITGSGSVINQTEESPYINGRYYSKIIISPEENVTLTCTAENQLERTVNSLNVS

B1: scFv IF8 (scFv, V domains shown)
VH: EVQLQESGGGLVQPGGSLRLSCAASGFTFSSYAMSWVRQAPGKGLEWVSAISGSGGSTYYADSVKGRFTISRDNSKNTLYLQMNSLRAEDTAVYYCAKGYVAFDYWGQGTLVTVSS
VL: SSELTQDPAVSVALGQTVRITCQGDSLRSYYASWYQQKPGQAPVLVIYGKNNRPSGIPDRFSGSSSGNTASLTITGAQAEDEADYYCNSSPPFSAEVVFGGGTKLTVL
notes: VH of IF8 (heavy chain DP47, ETH-2 library); VL of IF8 (light chain DPL16, ETH-2 library); CDR1 QGDSLRSYYAS, CDR2 GKNNRPS, CDR3 NSSPPFSAEVV; Only CDRs and linker are printed; also called IF8 scFv; parental scFv IF8; source: CHO cells, transient gene expression, purified (Protein A)
[1]
  IC50: 63.6 nM
[2]
  Kd: 24.1 nM

B2: scFv V2D7 (scFv, V domains shown)
VH: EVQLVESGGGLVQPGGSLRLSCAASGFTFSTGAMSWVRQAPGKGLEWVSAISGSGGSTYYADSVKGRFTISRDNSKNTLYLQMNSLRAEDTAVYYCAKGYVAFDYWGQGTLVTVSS
VL: SSVLTQPPSVSVAPGQTARITCQGDSLRSGYASWYQQKPGQAPVLVVYGKNNRPSGIPERFSGSSSGNTATLTISRVEAGDEADYYCNSSPPFSAEVVFGGGTKLTVL
notes: VH of V2D7: as the VH of OPT with changed CDR1; linker; VL of V2D7: as the VL of OPT with changed CDR1; CDR1 QGDSLRSGYAS, CDR2 GKNNRPS, CDR3 NSSPPFSAEVV; also called V2D7 scFv; source: CHO cells, transient gene expression, purified (Protein A)
Murine ALCAM
  IC50 of DC transmigration across LEC monolayers (DC TM; blocks ALCAM–ALCAM between DCs and LECs): > 100 nM
Monkey ALCAM
  binding result: binds
Rat ALCAM
  binding result: binds
[3]
  IC50: 20.7 ± 11.8 nM

B3: scFv OPT (scFv, V domains shown)
VH: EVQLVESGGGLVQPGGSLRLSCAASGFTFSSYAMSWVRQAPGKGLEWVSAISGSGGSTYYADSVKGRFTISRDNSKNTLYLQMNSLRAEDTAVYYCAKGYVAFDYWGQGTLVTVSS
VL: SSVLTQPPSVSVAPGQTARITCQGDSLRSYYASWYQQKPGQAPVLVVYGKNNRPSGIPERFSGSSSGNTATLTISRVEAGDEADYYCNSSPPFSAEVVFGGGTKLTVL
notes: linker; CDR1 QGDSLRSYYAS, CDR2 GKNNRPS, CDR3 NSSPPFSAEVV; Only CDRs and linker are printed; also called framework-optimized scFv OPT; source: CHO cells, transient gene expression, purified (Protein A)
[2]
  fold improvement of Kd against scFv IF8: 2 fold

B4: scFv V20C10NC (scFv, V domains shown)
VH: EVQLVESGGGLVQPGGSLRLSCAASGFTFSTGAMSWVRQAPGKGLEWVSAISGTGGTTYYADSVKGRFTISRDNSKNTLYLQMNSLRAEDTAVYYCAKGYVAFDYWGQGTLVTVSS
VL: SSVLTQPPSVSVAPGQTARITCQGDSLRSGYASWYQQKPGQAPVLVVYPKMSRPSGIPERFSGSSSGNTATLTISRVEAGDEADYYCNSSPPFSAEVVFGGGTKLTVL
notes: VH of V20C10NC: as the VH of OPT with changed CDR1 and CDR2; linker; VL of V20C10NC: as the VL of OPT with changed CDR1 and CDR2; CDR1 QGDSLRSGYAS, CDR2 PKMSRPS, CDR3 NSSPPFSAEVV; Histidines in the CDR2 loops of clone V20C10 were mutated to threonine (VH) and serine (VL), giving V20C10NC; source: CHO cells, transient gene expression, purified (Protein A)
[2]
  binding result: binds

B5: db V20C10NC (other)
VH: EVQLVESGGGLVQPGGSLRLSCAASGFTFSTGAMSWVRQAPGKGLEWVSAISGTGGTTYYADSVKGRFTISRDNSKNTLYLQMNSLRAEDTAVYYCAKGYVAFDYWGQGTLVTVSS
VL: SSVLTQPPSVSVAPGQTARITCQGDSLRSGYASWYQQKPGQAPVLVVYPKMSRPSGIPERFSGSSSGNTATLTISRVEAGDEADYYCNSSPPFSAEVVFGGGTKLTVL
notes: linker; Bivalent two-chain diabody; also called V20C10NC in db format; source: CHO cells, transient gene expression, purified (Protein A)
[1]
  binding result: binds

B6: scFv V200G1 (scFv, V domains shown)
VH: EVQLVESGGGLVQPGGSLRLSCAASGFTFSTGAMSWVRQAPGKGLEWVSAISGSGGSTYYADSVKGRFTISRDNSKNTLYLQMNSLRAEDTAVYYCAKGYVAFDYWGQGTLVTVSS
VL: SSVLTQPPSVSVAPGQTARITCQGDSLRSGYASWYQQKPGQAPVLVVYGKTGRPSGIPERFSGSSSGNTATLTISRVEAGDEADYYCNSSPPFSAEVVFGGGTKLTVL
notes: VH of V200G1: as the VH of V2D7, i.e. the VH of OPT with changed CDR1; linker; VL of V200G1: as the VL of OPT with changed CDR1 and CDR2; CDR1 QGDSLRSGYAS, CDR2 GKTGRPS, CDR3 NSSPPFSAEVV; source: CHO cells, transient gene expression, purified (Protein A)
[2]
  binding result: binds

B7: Murine CD6-Fc (Fc fusion, mouse, UniProt Q61003 17-398, looked up)
chain: GLPSPAPSGQHKNGTIPNMTLDLEERLGIRLVNGSSRCSGSVKVLLESWEPVCAAHWNRAATEAVCKALNCGDSGKVTYLMPPTSELPPGATSGNTSSAGNTTWARAPTERCRGANWQFCKVQDQECSSDRRLVWVTCAENQAVRLVDGSSRCAGRVEMLEHGEWGTVCDDTWDLQDAHVVCKQLKCGWAVKALAGLHFTPGQGPIHRDQVNCSGTEAYLWDCPGRPGDQYCGHKEDAGVVCSEHQSWRLTGGIDSCEGQVEVYFRGVWSTVCDSEWYPSEAKVLCRSLGCGSAVARPRGLPHSLDGRMYYSCKGQEPALSTCSWRFNNSNLCSQSRAARVVCSGSQRHLNLSTSEVPSRVPVTIESSVPVSVKDKDSQGLT
notes: mouse CD6, recombinant Fc fusion; source: bought: R&D Systems (727-CD)
[4]
  binding result: binds
